Measurements from US20060121042A1 (AstraZeneca / MedImmune, published 2006).

T1: hEph A1
T1 construct: also called human EphA1; not shown: Fc portion of the probable EphA1-Fc fusion (human IgG1 Fc)
T1 chain: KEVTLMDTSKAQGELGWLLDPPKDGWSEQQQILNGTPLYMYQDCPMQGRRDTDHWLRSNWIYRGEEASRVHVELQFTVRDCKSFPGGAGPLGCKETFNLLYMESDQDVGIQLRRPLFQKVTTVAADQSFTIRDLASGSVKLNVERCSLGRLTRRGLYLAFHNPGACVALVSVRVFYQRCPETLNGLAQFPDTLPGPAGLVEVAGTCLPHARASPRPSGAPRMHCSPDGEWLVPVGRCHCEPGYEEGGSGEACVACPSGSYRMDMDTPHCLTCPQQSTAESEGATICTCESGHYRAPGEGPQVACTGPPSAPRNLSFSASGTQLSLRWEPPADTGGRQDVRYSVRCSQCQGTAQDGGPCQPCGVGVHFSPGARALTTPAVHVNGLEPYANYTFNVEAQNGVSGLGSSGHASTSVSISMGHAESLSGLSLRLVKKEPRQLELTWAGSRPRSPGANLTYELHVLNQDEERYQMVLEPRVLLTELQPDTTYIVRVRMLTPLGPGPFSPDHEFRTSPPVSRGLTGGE

T2: mEph A6 (mouse, UniProt Q62413)
T2 sequence (receptor, looked up): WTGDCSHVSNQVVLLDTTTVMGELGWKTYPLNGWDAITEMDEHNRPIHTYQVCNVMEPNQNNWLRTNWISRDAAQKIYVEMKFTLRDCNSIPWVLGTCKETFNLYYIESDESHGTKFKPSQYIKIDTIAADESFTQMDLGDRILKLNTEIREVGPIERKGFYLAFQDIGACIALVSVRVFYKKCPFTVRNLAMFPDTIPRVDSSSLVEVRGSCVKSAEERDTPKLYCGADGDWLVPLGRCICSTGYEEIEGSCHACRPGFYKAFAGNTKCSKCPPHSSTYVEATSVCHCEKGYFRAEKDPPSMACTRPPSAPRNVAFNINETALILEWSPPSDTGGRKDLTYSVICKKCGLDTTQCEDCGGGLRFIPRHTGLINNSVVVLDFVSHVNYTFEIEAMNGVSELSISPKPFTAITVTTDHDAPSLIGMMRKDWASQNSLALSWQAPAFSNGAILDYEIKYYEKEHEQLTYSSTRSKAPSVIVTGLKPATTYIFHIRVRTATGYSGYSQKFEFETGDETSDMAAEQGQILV

T3: rmEph B3 (mouse, UniProt P54754)
T3 sequence (receptor, looked up): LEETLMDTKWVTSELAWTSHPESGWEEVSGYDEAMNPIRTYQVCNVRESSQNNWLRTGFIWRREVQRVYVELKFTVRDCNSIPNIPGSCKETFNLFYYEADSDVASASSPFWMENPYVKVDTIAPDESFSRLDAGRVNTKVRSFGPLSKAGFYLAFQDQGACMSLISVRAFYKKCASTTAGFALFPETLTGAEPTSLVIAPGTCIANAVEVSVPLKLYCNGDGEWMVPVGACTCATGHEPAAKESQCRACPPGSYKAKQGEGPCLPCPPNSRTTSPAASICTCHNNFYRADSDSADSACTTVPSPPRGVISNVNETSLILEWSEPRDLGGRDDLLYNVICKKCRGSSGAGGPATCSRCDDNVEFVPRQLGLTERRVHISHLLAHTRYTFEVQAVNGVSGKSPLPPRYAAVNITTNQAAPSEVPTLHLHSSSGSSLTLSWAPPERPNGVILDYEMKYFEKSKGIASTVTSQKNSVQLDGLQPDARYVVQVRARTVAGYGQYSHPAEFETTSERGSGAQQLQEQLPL

T4: rrEphB1 (rat, UniProt P09759)
T4 sequence (receptor, looked up): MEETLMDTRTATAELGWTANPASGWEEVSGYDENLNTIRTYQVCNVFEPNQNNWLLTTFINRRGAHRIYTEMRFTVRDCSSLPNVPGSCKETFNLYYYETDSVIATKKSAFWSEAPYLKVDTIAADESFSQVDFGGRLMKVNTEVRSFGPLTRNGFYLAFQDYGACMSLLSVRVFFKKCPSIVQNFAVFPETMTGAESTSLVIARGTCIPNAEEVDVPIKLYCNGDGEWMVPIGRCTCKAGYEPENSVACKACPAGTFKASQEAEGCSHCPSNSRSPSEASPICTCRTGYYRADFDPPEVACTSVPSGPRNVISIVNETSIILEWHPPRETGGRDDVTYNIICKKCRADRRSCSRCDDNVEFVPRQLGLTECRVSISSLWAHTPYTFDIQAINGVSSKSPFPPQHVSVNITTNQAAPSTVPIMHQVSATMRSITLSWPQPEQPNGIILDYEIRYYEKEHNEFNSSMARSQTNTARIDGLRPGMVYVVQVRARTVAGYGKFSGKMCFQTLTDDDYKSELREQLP

T5: rmEph B2 (mouse, UniProt P54763)
T5 sequence (receptor, looked up): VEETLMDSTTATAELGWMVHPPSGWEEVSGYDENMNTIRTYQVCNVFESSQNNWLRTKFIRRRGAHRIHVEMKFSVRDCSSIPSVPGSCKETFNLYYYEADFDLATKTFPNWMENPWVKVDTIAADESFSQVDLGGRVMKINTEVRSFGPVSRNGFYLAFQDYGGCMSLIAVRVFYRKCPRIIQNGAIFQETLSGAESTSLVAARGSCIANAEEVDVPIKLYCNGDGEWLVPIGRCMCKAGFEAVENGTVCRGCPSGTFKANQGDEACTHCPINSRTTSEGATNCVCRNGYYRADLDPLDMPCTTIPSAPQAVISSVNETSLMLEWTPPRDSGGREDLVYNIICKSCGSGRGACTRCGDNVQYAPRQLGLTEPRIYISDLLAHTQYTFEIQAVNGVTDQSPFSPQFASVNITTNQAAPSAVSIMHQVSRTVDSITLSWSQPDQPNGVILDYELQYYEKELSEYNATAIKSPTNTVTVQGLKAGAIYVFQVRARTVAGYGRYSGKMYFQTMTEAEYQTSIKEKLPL

T6: r murine EphA8 (mouse, UniProt O09127)
T6 construct: recombinant soluble protein coated on the plate; also called mEphA8; rEphA8
T6 sequence (receptor construct, looked up): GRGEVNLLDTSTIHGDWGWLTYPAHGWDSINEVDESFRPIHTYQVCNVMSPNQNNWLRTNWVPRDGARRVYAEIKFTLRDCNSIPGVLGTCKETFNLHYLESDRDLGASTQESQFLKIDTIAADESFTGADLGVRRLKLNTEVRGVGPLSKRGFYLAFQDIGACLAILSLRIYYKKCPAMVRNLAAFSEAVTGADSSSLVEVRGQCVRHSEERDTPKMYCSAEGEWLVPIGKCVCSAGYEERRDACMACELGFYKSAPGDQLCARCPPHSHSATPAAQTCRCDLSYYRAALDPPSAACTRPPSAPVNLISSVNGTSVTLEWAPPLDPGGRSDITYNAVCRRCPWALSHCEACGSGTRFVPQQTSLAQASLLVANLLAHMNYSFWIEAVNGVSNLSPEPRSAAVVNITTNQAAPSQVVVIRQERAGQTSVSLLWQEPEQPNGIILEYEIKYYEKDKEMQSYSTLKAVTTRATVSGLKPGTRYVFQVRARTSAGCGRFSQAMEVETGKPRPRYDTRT

T7: r murine EphA7 (mouse, UniProt Q61772)
T7 construct: recombinant Fc fusion (R&D Systems); also called rmuEphA7-Fc; mEphA7
T7 sequence (receptor-Fc fusion, looked up): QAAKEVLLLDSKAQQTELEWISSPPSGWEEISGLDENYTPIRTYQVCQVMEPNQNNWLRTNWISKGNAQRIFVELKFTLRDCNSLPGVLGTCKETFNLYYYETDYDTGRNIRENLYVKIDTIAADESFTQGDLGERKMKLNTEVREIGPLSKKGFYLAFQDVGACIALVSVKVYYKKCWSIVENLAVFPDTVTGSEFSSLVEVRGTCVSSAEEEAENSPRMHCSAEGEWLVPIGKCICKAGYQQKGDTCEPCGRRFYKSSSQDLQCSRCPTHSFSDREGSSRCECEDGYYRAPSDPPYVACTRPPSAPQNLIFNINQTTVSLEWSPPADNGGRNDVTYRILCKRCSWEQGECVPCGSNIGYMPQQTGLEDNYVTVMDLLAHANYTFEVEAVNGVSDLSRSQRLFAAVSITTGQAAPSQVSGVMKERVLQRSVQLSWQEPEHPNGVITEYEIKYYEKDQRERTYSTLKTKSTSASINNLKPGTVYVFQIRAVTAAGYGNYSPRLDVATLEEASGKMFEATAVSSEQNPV

T8: r murine EphA8 (mouse, UniProt O09127)
T8 construct: recombinant (rEphA8, R&D Systems); also called rEphA8
T8 sequence (receptor, looked up): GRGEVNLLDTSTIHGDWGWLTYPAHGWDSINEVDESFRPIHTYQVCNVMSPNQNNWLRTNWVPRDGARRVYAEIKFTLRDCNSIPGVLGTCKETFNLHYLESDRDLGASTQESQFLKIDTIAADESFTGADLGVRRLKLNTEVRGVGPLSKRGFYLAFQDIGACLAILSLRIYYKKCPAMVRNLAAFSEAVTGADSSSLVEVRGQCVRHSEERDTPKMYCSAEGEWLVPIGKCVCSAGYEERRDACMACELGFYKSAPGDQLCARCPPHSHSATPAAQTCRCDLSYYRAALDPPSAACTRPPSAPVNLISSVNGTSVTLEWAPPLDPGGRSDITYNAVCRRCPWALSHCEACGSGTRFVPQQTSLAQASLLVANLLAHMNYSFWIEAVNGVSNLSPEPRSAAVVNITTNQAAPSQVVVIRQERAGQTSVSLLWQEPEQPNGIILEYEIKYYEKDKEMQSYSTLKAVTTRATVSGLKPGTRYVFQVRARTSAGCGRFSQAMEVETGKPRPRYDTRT


Assays:
hEph A1 = target: T1, hEph A1; assay: ELISA
rEph A5 = rEph A5 (rat, UniProt P54757); assay: ELISA
Chain of rEph A5 (P54757 27-575 limits assumed): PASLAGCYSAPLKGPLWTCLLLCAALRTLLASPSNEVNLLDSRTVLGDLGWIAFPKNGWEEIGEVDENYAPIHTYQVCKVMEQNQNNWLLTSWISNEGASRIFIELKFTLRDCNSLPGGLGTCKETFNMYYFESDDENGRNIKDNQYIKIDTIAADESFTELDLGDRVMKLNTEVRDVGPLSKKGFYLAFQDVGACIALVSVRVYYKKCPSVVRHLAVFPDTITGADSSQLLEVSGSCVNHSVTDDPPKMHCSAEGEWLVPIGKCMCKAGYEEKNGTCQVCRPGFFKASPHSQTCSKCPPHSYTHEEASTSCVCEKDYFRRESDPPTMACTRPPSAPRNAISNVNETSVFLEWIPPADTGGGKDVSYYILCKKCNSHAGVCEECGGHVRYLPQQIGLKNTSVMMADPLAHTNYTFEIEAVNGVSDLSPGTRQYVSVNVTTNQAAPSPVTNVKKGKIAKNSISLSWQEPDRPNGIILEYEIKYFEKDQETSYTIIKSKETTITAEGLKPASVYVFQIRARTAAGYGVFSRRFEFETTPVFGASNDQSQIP

mEph A4 = mEph A4 (mouse, UniProt Q03137); assay: ELISA
Chain of mEph A4 (Q03137 20-547 limits assumed): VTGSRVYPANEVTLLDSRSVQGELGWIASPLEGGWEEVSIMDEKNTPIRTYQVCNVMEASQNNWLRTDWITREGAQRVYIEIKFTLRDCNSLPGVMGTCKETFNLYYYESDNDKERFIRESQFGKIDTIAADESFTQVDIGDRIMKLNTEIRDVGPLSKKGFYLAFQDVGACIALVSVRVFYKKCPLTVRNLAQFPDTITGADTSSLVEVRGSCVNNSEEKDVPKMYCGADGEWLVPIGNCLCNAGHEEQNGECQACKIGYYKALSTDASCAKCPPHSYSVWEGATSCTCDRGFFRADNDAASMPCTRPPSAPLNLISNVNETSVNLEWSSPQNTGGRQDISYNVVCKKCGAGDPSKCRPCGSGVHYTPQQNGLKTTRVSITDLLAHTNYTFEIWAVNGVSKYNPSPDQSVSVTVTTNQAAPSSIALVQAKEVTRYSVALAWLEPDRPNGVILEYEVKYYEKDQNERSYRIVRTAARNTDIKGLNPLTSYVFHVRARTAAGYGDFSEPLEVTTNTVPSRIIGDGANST

mEph A6 = target: T2, mEph A6; assay: ELISA
[1] = target: T9, human EphA4 (construct not given) (human, UniProt P54764 20-547, limits assumed); assay: ELISA
T9 construct: also called EphA4 receptor
T9 sequence (P54764 20-547 limits assumed): as the sequence (Q03137 20-547 limits assumed) above, with A59P, S121N, G124V, Q250R, N251S, S270T, R378K, S406N counted along it

rmEph B3 = target: T3, rmEph B3; assay: ELISA
rrEphB1 = target: T4, rrEphB1; assay: ELISA
rmEph B2 = target: T5, rmEph B2; assay: ELISA
r murine EphA8 [2] = target: T6, r murine EphA8; assay: Activity ELISA, receptor coated on the plate, periplasmic Fab, anti-human kappa-HRP, OD 450 nm
r murine EphA7 = target: T7, r murine EphA7; assay: activity ELISA, Fab on coated antigen
Method: (§1) More precisely, Nunc Maxisorp plates were coated with the following rEphA proteins: rhuEphAl-Fc, rmuEphA2-Fc, rmuEphA3-Fc, rmuEphA4-Fc, rratEphA5-Fc, rmuEphA6-Fc, rmuEphA7-Fc, rEphA8; all at 0.5 μg/well (all R&D Systems) rhuEphA2-Fc; 0.5 μg/well, and rhuEphA4-His; 0.1 μg/well (both produced at MedImmune, Inc.). Plates were blocked with 3% BSA+0.1% Tween20 for 2 h. […] Incubation with a goat anti-human kappa horseradish peroxydase (HRP) conjugate then followed. HRP activity was detected with TMB substrate and the reaction quenched with 0.2 M H₂SO₄. Plates were read at 450 nm. Data was analyzed by normalizing Fab concentrations to the corresponding activity data (see FIGS. 10B-10H).

r murine EphA4 = target: T10, r murine EphA4 (mouse, UniProt Q03137); assay: activity ELISA, Fab on coated antigen
T10 construct: recombinant Fc fusion (R&D Systems); also called rmuEphA4-Fc; mEphA4
T10 sequence (Q03137 20-547 limits assumed): as the sequence (Q03137 20-547 limits assumed) above
Method: as §1

r murine EphA8 [3] = target: T8, r murine EphA8; assay: activity ELISA, Fab on coated antigen
Method: as §1

| ELISA O.D. value (hEph A1) | ELISA O.D. value (rEph A5) | ELISA O.D. value (mEph A4) | ELISA O.D. value (mEph A6) | ELISA O.D. value [1] | binding result (rmEph B3) | binding result (rrEphB1) | ELISA O.D. value (rmEph B2) | binding result (r murine EphA8 [2]) | binding result (r murine EphA7) | binding result (r murine EphA4) | binding result (r murine EphA8 [3]) | Binder |
| --- | --- | --- | --- | --- | --- | --- | --- | --- | --- | --- | --- | --- |
| 0.784 | 0.717 | 0.358 | 1.43 | 0.887 | binds | binds | 0.581 | – | – | – | – | GEA44 11H1 (antibody, V domains shown, same variable regions as m16) VH: QVQLLQSGAEVKKPGASVKVPCKASGYTFTSYAMSWVRQAPGQGLEWMGWINTNTGNPTYAQGFTGRFVFSLDTSVSTAYLQISSLKAEDTAVYYCARVRLTVYGDGMDVWGQGTLVTVSS VL: EIVLTQSPATLSVSPGERATLSCRASQSVSSNLAWYQQKPGQAPRLLIYGASTRATGIPDRFSASGSGTDFTLTISRVEPEDFAVYYCQQYGSSWTFGQGTKVEIK |
| – | – | – | – | – | – | – | – | binds | binds | binds | binds | 3A12 Fab (affinity optimized combinatorial variant of Fab20) (Fab, V domains shown) VH: QVQLLQSGAEVKKPGASVKVPCKASGYTFTSRAMSWVRQAPGQGLEWMGWINTNTGNPTYAQGFTGRFVFSLDTSVSTAYLQISSLKAEDTAVYYCARVRFTVYGDGMDVWGQGTLVTVSS VL: EIVLTQSPATLSVSPGERATLSCRASQSVSSNLAWYQQKPGQAPRLLIYGASTWATGIPDRFSASGSGTDFTLTISRVEPEDFAVYYCQQYGPSWTFGQGTKVEIK |
